Our source for the IC50 values is patent publication US5521072.

The target in one assay is recombinant Actinobacillus pleuropneumoniae serotype 7 60 kDa transferrin binding protein (Actinobacillus pleuropneumoniae serotype 7 strain AP205). The assay can be described thus: competitive ELISA, 50% inhibition value; competitor preincubated with the recombinant 60 kDa protein, solid phase porcine transferrin.
One may read the IC50 as the concentration that gives 50% inhibition. Consider “porcine transferrin (TF), iron replete (from UniProt P09571) (ligand)”, for which the IC50 was 25 µg/mL.

The target is the same in another assay. The assay is described as follows: competitive ELISA, 50% inhibition value, solid phase porcine transferrin. In general terms: ELISA stands for enzyme-linked immunosorbent assay.
On to “human apotransferrin (from UniProt P02787) (ligand)”, for which the concentration for half-maximal inhibition (IC50) was greater than 1000 µg/mL.

Take “human transferrin, iron replete (from UniProt P02787) (ligand)”: the IC50 was greater than 1000 µg/mL.

Turning to “porcine apotransferrin (from UniProt P09571) (ligand)”, the half-inhibitory concentration (IC50) was 150 µg/mL.

Take “bovine transferrin, iron replete (from UniProt Q29443) (ligand)”: the IC50 is greater than 1000 µg/mL.

As for “bovine apotransferrin (from UniProt Q29443) (ligand)”, the IC50 was greater than 1000 µg/mL.

For “porcine TF, NH2-terminus (from UniProt P09571) (ligand)”, the IC50 came out at 20 µg/mL.
